Laboratory results taken from publication PMC6941110, “Mutation of Aspartate 238 in FAD Synthase Isoform 6 Increases the Specific Activity by Weakening the FAD Binding” (International Journal of Molecular Sciences, 2019).

Assays:
Assay in all cases: purified protein
Format in all cases: biochemical, Homo sapiens
[1] = test system: T1, Nc1ncnc2c1ncn2[C@@H]1O[C@H](COP(=O)(O)OP(=O)(O)OP(=O)(O)O)[C@@H](O)[C@H]1O; conditions: forward reaction, 5 mM MgCl2, 50 mM Tris/HCl pH 7.5, 37 °C
T1 construct: 320-residue isoform 6, FADSy domain only, lacks N-terminal FADHy domain; monomer

[2] = test system: T2, Cc1cc2nc3c(=O)[nH]c(=O)nc-3n(C[C@H](O)[C@H](O)[C@H](O)COP(=O)(O)O)c2cc1C; conditions: forward reaction, 100 µM ATP, 5 mM MgCl2, 50 mM Tris/HCl pH 7.5, 37 °C
T2 construct: 320-residue isoform 6, FADSy domain only, lacks N-terminal FADHy domain; monomer

[3] = test system: T3, O=P(O)(O)OP(=O)(O)O; conditions: reverse reaction, 0.5 µM FAD, 5 mM MgCl2, 50 mM Tris/HCl pH 7.5, 37 °C
T3 construct: 320-residue isoform 6, FADSy domain only, lacks N-terminal FADHy domain; monomer

Chain of hFADS6 (human FAD synthase isoform 6) (Homo sapiens; D505A) (chain, as listed by the source D505A): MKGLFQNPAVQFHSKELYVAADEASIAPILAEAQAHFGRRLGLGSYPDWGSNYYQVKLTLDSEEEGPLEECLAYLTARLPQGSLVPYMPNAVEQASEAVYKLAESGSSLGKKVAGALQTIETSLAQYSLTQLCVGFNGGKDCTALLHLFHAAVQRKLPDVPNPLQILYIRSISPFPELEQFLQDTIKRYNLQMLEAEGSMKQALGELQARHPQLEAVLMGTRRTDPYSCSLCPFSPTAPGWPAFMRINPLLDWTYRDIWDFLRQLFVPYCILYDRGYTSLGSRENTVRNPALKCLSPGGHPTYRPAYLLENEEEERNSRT
Chain of hFADS6 (human FAD synthase isoform 6) (Homo sapiens) (chain, as listed by the source): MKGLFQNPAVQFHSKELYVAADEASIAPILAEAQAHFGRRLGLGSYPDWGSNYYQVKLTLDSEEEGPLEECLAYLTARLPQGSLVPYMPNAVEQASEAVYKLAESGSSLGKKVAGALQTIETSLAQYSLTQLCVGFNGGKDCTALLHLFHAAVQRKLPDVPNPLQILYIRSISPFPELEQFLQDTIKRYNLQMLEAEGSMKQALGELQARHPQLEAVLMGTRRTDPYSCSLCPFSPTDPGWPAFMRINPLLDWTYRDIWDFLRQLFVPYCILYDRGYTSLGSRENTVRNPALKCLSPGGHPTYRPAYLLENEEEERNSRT

Row | Substance | Km ([1]; 2 µM FMN) | kcat ([1]; 2 µM FMN) | Km [2] | kcat [2] | Km [3] | Km ([1]; 3 µM FMN) | kcat ([1]; 3 µM FMN)
1 | hFADS6 (human FAD synthase isoform 6) (Homo sapiens) | 6.9 ± 0.5 µM | 0.050 ± 0.001 s⁻¹ | 0.13 ± 0.01 µM | 0.047 ± 0.001 s⁻¹ | 42 ± 6 µM |  | 
2 | hFADS6 (human FAD synthase isoform 6) (Homo sapiens; D505A) |  |  | 1.3 ± 0.3 µM | 0.103 ± 0.007 s⁻¹ | 60 ± 8 µM | 44 ± 4 µM | 0.093 ± 0.003 s⁻¹
